Source: US20250270315A1 (ELPISCIENCE SUZHOU BIOPHARMA, published 2025)

Columns and labels:
[1] = target: T1, human SIRPβL ECD recombinant protein (6×His tagged) (human, UniProt Q5TFQ8 30-371); assay: ELISA, hSIRPβI ECD
T1 construct: given variously as SIRPBL, SIRPBI and SIRPβI; Bought from Biointron; also called human SIRPBL ECD; human SIRPBI ECD
Text: (§1) Binding activity of the purified chimeric antibodies against SIRPβ and SIRPBI was detected by ELISA assay using recombinant proteins of human SIRPβ ECD (FIGS. 3A and 3B), human SIRPBI ECD (FIGS. 3D and 3E) and FACS assay using CHOK 1 cells stably expressing human SIRPB (FIG. 3C).

[2] = target: T2, human SIRPα v2 ECD recombinant protein (tag not given) (human); assay: competitive ELISA, mFc-CD47 ECD on coated SIRPα v2 ECD
T2 construct: extracellular domain; also called ELISA microplate coated human SIRPα v2 ECD
Protocol: (§2) Competitive ELISA assay was used to determine whether the purified chimeric antibodies can block CD47 and SIRPα interaction. Briefly, antibody and mFc tagged human CD47 ECD recombinant protein were co-incubated with ELISA microplate coated human SIRPα v1 ECD (FIGS. 6A and 6B) or human SIRPα v2 ECD (FIGS. 7A and 7B) recombinant protein. After washing, HRP labeled anti-mouse Fc 2nd antibody (Sigma) was added and incubated at 37° C. for 1 hour. Then, 100 μl/well of TMB solution (Biotechnology) was added. After incubation for 15 minutes at room temperature, the reaction was stopped by the addition of 50 μl of 1N HCl. OD 450 nm was read. Blocking ratio was determined by blockade of human CD47 ECD recombinant protein binding to ELISA microplate coated human SIRPα ECD recombinant protein. Other than 005, all antibodies as tested can block interaction between human CD47 and different human SIRPα variants.

[3] = target: T3, full length human SIRPα v1 stably expressed on CHOK1 or 293F cells (human, UniProt P78324 31-504); assay: competitive FACS, mFc-CD47 ECD on CHOK1-human SIRPα v1 cells
T3 construct: whole, on cells; also called CHOK1-human SIRPα v1; CHOK1-hSIRPα v1
T3 sequence (P78324 31-504): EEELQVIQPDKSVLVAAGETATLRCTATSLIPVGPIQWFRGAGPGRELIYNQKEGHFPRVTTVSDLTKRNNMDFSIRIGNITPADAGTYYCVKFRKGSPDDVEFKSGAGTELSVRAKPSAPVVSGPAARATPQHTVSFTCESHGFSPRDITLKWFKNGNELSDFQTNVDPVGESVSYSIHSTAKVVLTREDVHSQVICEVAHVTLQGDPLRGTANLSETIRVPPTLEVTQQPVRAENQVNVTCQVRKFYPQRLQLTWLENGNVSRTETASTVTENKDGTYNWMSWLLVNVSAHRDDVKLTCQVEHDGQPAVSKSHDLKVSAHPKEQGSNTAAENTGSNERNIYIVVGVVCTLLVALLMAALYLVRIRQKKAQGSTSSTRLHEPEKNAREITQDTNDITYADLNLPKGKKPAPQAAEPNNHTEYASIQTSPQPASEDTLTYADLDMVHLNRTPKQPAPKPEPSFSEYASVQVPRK
Summary of the method: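 Antibody co-incubated with mFc-tagged human CD47 ECD on CHOK1 cells stably expressing human SIRPα v1 or v2; dye-labeled anti-mouse Fc secondary added, 37 °C for 1 h. Fluorescence intensity read; blocking ratio derived from inhibition of CD47 ECD binding to SIRPα-expressing cells.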

[4] = target: T4, human SIRPα v1 ECD recombinant protein (tag not given) (human, UniProt P78324 31-373); assay: competitive ELISA, coated human SIRPα v1 ECD, blocked ligand mFc tagged human CD47 ECD
T4 construct: extracellular domain; also called biotin labeled soluble human SIRPα v1 ECD recombinant protein; ELISA microplate coated human SIRPα v1 ECD
T4 sequence (P78324 31-373): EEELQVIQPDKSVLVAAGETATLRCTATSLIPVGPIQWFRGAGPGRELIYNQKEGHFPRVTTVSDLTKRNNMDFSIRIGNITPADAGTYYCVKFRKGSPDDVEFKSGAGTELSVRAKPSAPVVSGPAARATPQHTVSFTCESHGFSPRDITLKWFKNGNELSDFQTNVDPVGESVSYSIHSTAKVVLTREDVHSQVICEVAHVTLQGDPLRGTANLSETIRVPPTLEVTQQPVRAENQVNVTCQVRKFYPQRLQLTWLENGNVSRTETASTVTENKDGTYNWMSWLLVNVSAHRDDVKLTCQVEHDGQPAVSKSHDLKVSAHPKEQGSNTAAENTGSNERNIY
Protocol: as §2

[5] = target: T5, mFc tagged human SIRPα v1 ECD recombinant protein (human, UniProt P78324 31-373); assay: competitive ELISA binning, mFc-SIRPα v1 ECD; competitor 042c
T5 construct: extracellular domain; Bought from Biointron; not shown: mouse IgG Fc (mFc) tag
T5 sequence (P78324 31-373): as above
Protocol: Competitive ELISA assay was used for epitope binning of purified chimeric antibodies. Briefly excessive competitor antibody and mFc tagged human SIRPα v1 ECD recombinant protein were co-incubated with ELISA microplate coated antibody. After washing, HRP labeled anti-mouse Fc 2nd antibody (Sigma) was added and incubated at 37° C. for 1 hour. Then, 100 μl/well of TMB solution (Biotechnology) was added. After incubation for 15 minutes at room temperature, the reaction was stopped by the addition of 50 μl of 1N HCl. OD 450 nm was read. Competition ratio was calculated. The antibodies that can compete each other for binding to SIRPα may have related binding epitopes.

[6] = target: Human SIRPα v1 (antigen of the Octet and Biacore affinity measurements) (human, UniProt P78324 31-370, limits assumed); assay: BLI (Octet), 1:1 binding model
Chain of Human SIRPα v1 (antigen of the Octet and Biacore affinity measurements) (P78324 31-370 limits assumed): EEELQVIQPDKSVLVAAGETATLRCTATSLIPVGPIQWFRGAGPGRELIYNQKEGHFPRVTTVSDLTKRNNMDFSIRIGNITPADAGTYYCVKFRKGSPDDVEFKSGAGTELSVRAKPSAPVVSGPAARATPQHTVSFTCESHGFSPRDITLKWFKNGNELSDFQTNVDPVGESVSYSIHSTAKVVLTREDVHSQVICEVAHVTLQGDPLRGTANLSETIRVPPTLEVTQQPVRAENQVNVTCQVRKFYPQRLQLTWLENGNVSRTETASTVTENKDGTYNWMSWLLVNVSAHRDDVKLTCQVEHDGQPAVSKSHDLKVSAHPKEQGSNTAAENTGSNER
Protocol: The purified chimeric antibodies were characterized for binding affinity against human SIRPα v1, human SIRPα v2 using Bio-Layer Interferometry technology (Octet system). The association and dissociation curves were fit with 1:1 binding model, and the Ka/Kd/KD values for each antibody were calculated.

[7] = target: T6, human SIRPβ ECD recombinant protein (6×His tagged) (human, UniProt O00241 30-371); assay: ELISA, hSIRPβ ECD
T6 construct: extracellular domain; Bought from Sino Biological; also called hSIRPβ ECD; not shown: 6×His tag
T6 sequence (O00241 30-371): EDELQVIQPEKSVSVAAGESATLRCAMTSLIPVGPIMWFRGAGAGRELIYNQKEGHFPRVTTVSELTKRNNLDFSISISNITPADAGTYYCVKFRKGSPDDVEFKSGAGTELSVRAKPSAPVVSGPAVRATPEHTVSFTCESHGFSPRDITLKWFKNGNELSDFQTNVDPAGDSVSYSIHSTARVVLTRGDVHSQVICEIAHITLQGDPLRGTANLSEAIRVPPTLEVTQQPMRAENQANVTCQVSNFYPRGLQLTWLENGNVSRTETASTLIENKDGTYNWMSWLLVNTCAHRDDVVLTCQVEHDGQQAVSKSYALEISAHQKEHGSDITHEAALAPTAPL
Text: as §1

[8] = target: T1, human SIRPβL ECD recombinant protein …; assay: ELISA, recombinant human SIRPβL (SIRPβI) ECD
Text: as §1

[9] = target: T7, human SIRPβ stably expressed on CHOK1 cells (human, UniProt O00241 30-398); assay: FACS, CHOK1-hSIRPβ cells
T7 construct: whole, on cells; also called CHOK1-human SIRPB; CHOK1-hSIRPβ
T7 sequence (O00241 30-398): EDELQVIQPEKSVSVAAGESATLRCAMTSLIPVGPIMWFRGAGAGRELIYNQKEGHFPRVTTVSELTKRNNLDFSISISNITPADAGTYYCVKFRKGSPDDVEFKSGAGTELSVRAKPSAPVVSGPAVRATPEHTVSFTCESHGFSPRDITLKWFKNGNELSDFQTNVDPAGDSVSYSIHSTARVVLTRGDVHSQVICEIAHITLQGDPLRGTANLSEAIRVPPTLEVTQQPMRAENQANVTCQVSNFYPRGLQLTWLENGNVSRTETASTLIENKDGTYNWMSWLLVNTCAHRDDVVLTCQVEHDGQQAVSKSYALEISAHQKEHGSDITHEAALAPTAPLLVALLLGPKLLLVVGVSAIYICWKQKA
Text: as §1

T1 sequence (Q5TFQ8 30-371 limits assumed): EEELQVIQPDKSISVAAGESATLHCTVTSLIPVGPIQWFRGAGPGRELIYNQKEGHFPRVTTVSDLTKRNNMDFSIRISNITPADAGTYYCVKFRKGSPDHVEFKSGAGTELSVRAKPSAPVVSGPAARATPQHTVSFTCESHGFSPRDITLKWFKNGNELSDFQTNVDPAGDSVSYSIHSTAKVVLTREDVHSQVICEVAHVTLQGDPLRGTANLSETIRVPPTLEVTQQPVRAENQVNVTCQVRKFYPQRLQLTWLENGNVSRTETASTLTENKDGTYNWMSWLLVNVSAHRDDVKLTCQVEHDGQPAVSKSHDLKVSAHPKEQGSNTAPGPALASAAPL

EC50 [1]: 0.33 nM | TOP OD450 [1]: 2.8 OD450 | IC50 [2]: 2.21 nM | TOP blocking (%) [2]: 96.5% | IC50 [3]: 0.4 nM | TOP blocking (%) [3]: 97.6% | IC50 (read off the curve) [4]: 2 to 3 nM | % Competition [5]: 19.1% | Kd [6]: 2.46 nM | koff [6]: 0.00156 s⁻¹ | kon [6]: 636000 M⁻¹ s⁻¹ | EC50 [7]: 0.04 nM | TOP OD450 [7]: 3.1 OD450 | EC50 (read off the curve) [8]: ~0.4 nM | EC50 [9]: 0.38 nM | TOP MFI [9]: 10900 MFI
B1: 025c (antibody, V domains shown)
VH: EVQLQQSGAELVKPGASVKLSCTASGFNIKDYYMHWVKQRTEQGLEWIGRIDPEDGETKYAPKFQGKATITADTSSNTAYLQLSSLTSEDTAVYYCDRGLAYWGQGTLVTVSA
VL: QIVLTQSPAIMSASPGEKVTLTCSASSSVSSSYLYWYQQKPGSSPKLWIYSTSNLASGVPARFSGSGSGTSYSLTISSMEAEDAASYFCHQWSSYPYTFGGGTKLEIK
notes: also called chimeric antibody 025c; parental antibody of 025c
